Like-named read-outs stand apart in the source and are kept apart here. Blank lines part the entries; values can stand above or below the compound they belong to.
Legend:
EnuR [1] = molecular target: T1, EnuR (Ruegeria pomeroyi, UniProt Q5LUA6); assay: microscale thermophoresis; format: binding
T1 construct: gene gntR; full-length EnuR with C-terminal Strep-tag-II, PLP-containing
T1 sequence (Q5LUA6 1-464): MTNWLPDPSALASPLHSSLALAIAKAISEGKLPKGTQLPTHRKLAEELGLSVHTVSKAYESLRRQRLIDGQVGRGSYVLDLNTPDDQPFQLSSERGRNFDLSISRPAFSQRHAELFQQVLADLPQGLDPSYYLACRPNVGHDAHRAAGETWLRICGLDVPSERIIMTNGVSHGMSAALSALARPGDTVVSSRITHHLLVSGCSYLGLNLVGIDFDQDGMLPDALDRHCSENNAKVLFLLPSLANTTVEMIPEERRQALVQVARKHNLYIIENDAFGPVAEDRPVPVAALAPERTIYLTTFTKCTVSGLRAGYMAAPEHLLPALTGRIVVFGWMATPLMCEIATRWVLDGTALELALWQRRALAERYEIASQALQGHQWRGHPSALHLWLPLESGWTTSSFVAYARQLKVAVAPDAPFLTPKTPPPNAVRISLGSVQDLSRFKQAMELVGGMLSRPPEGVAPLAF

EnuR [2] = molecular target: T2, EnuR (Ruegeria pomeroyi, UniProt Q5LUA6); assay: microscale thermophoresis; format: binding; remark: listed apart in the source
T2 construct: gene gntR; full-length EnuR with C-terminal Strep-tag-II, PLP-containing

[3] = molecular target: C-terminal aminotransferase domain (ATD) of wild-type EnuR from Ruegeria pomeroyi DSS-3, Strep-tag II fusion (Ruegeria pomeroyi DSS-3); assay: SEC; HiLoad 16/600 Superdex 200 pg column; masses estimated against marker proteins (thyroglobulin, alcohol dehydrogenase, bovine albumin, carbonic anhydrase); quaternary assembly of the Strep-Tactin purified proteins
[4] = molecular target: C-terminal aminotransferase domain of the EnuR* (Lys302His) mutant from Ruegeria pomeroyi DSS-3, Strep-tag II fusion (Ruegeria pomeroyi DSS-3); assay: as above
[5] = molecular target: Ectoine nutrient utilization regulator (EnuR) from Ruegeria pomeroyi DSS-3, full-length wild type, EnuR-Strep-tag II (Ruegeria pomeroyi DSS-3); assay: as above
[6] = molecular target: EnuR* (Lys302His) mutant of full-length EnuR from Ruegeria pomeroyi DSS-3, EnuR*-Strep-tag II (Ruegeria pomeroyi DSS-3); assay: as above
[7] = test system: EnuR (C-terminal Strep-tag II fusion, PLP-bound) (Ruegeria pomeroyi DSS-3); assay: MST; settings: PLP-containing EnuR, 200 nM; MST: 10 mM Tris-HCl pH 7.5, 150 mM NaCl, 0.07% Tween20, 21 C; 200 nM NT-647-labeled EnuR titrated with DNA

Compound: C-terminal aminotransferase domain of the EnuR* (Lys302His) mutant from Ruegeria pomeroyi DSS-3, Strep-tag II fusion (domain or fragment)
- stoichiometry N [4]: 2

Compound: EnuR* (Lys302His) mutant of full-length EnuR from Ruegeria pomeroyi DSS-3, EnuR*-Strep-tag II (natural protein)
- stoichiometry N [6]: 2

Compound: TAACATTGTCGCGCGACAATAAAAAAATTGACATGCAGTACAATTCCC (double strand) [MST BS WT 48 bp promoter/operator fragment]
- Kd [7]: 1.9 µM

The next lines start with the values.

- Kd (EnuR [1]): 0.43 ± 0.2 µM
Compound: CC(=O)N[C@H](C(=O)O)[C@@H](O)CN [hydroxy-α-ADABA]

- Kd (EnuR [2]): 2.55 ± 0.5 µM
Compound: CC(=O)N[C@@H](CCN)C(=O)O [α-ADABA]

- stoichiometry N [3]: 2
Compound: C-terminal aminotransferase domain (ATD) of wild-type EnuR from Ruegeria pomeroyi DSS-3, Strep-tag II fusion (domain or fragment)

- stoichiometry N [5]: 2
Compound: Ectoine nutrient utilization regulator (EnuR) from Ruegeria pomeroyi DSS-3, full-length wild type, EnuR-Strep-tag II (natural protein)
